The assay deals with recombinant SmFGFRA extracellular ligand binding domain (rSmFGFRA-L) (Schistosoma mansoni). As to the kind of experiment: BLI; Octet RED 96; biotinylated rSmFGFRA-L immobilised on Streptavidin Biosensors, human aFGF/bFGF in dilution series as analyte; kinetic buffer (PBS with 15 mM NaCl, 0.1 mg/ml BSA, 0.002% Tween-20); association 1000 s, dissociation 1000 s; 30°C, 1000 rpm; double reference subtraction. In general terms: BLI is a label-free optical method that tracks binding on a fibre tip over time.

What is called Kd is the constant that tells how readily two partners part at equilibrium.

Regarding “human acidic FGF (aFGF) (from UniProt P05230 16-155) (ligand)”, the Kd was determined as 5.81 nM.

As for “human basic FGF (bFGF) (from UniProt P09038 143-288) (ligand)”, the Kd was determined as 0.36 nM.

The record behind these values is publication PMC9257043.
